Measured values taken from the RNAGym collection of RNA variant scans (doi:10.7554/elife.80360).

B1: Hairpin Ribozyme (parent)
chain: GUCCUCUUUCACGUGCGCGUGAAAGAGAGAAGUGAACCAGAGAAACACACGUUGUGGUAUAUUACCUGGUA

Variants of: B1
Assay: self-cleavage, relative activity (ratio to wild type); higher = more cleavage; co-transcriptional

Variant | self-cleavage
A30U A47G | 0.0659
U53A U67G | 0.385
A22U A45C | 0.179
U7A | 0.92
U8A G68A | 0.179
C12A A71C | 1.26
U60C U67A | 0.324
A31U G42U | 0.0854
A45G C48U | 0.0892
U2A G56C | 0.0929
U9A A26C | 0.364
C10U U63A | 0.25
C10U U63G | 0.263
C10G A36G | 0.778
C46U A59U | 0.149
G19A G32C | 0.111
A24G G56A | 0.187
U20C U33A | 0.0957
A35G C37A | 0.416
C4A A47C | 0.205
U8C G57U | 0.368

Variant | self-cleavage
A11U G25A | 0.402
G56C U60G | 0.111
G21A A41C | 0.761
A22C G57C | 0.117
C16U A43G | 0.0631
A23G A49U | 0.227
G13A U53C | 0.645
G27U C66G | 0.126
A45G A59G | 0.174
U9A A43G | 0.179
U9C A26U | 0.546
A35G A36U | 0.695
C50G U53G | 0.0749
G19C A36U | 0.603
A41G U60A | 0.761
G54A A71G | 0.426
U8A A64G | 0.503
G15C A35U | 0.703
U53C A59G | 0.303
G1U A39G | 0.121
C48U G56U | 0.231

Variant | self-cleavage
C6U U20G | 0.637
G40A U60C | 0.413
A26U A30U | 0.11
G13A G51U | 0.821
G34U C46U | 0.102
A41G A59G | 0.17
U55G U67A | 0.219
C4A C16A | 0.202
C16U A26C | 0.839
G25U | 0.65
C18U U52G | 0.859
G25U G32C | 0.187
A26C A44U | 0.193
G51C G69C | 0.28
U8G U55G | 0.223
A39U U55C | 0.183
G21U G25U | 0.461
G1C A39G | 0.146
U8C A26U | 0.336
A45G U55G | 0
G13U U63A | 0.103

Variant | self-cleavage
A26G U63G | 0.183
C12A A26G | 0.766
A28G G69C | 0.46
A22U A24U | 0.554
G51U C65U | 0.284
C3U A24C | 0.477
C50A G56A | 0.21
A61U G68U | 0.153
U9C G25A | 0.24
G25U C48A | 0.143
A39C A59G | 0.126
A30G A44G | 0.108
G19A G51A | 1.07
G56C U70C | 0.134
U5G C12U | 0.529
G21U U55G | 0.2
A30G U52C | 0.116
A23G A30U | 0.181
G51U U67G | 0.384
C38A U58A | 0.211
